Data as given in US20130210709A1 (ANCHOR THERAPEUTICS, published 2013).
Square brackets hold non-standard residues; d marks the D form. Ends that are not written are not given here. * marks the point of attachment. Palmitoyl = CCCCCCCCCCCCCCCC(=O)*

B1: CXCR4 i1 loop compound 146 (peptide)
peptide: Palmitoyl-MGYQKKLRAMTDKYRL-NH2
SMILES: CCCCCCCCCCCCCCCC(=O)N[C@@H](CCSC)C(=O)NCC(=O)N[C@@H](Cc1ccc(O)cc1)C(=O)N[C@@H](CCC(N)=O)C(=O)N[C@@H](CCCCN)C(=O)N[C@@H](CCCCN)C(=O)N[C@@H](CC(C)C)C(=O)N[C@@H](CCCNC(=N)N)C(=O)N[C@@H](C)C(=O)N[C@@H](CCSC)C(=O)N[C@H](C(=O)N[C@@H](CC(=O)O)C(=O)N[C@@H](CCCCN)C(=O)N[C@@H](Cc1ccc(O)cc1)C(=O)N[C@@H](CCCNC(=N)N)C(=O)N[C@@H](CC(C)C)C(N)=O)[C@@H](C)O
B2: CXCR4 i1 loop compound 147 (peptide)
peptide: Palmitoyl-MGYQKKLRSATDKYRL-NH2
SMILES: CCCCCCCCCCCCCCCC(=O)N[C@@H](CCSC)C(=O)NCC(=O)N[C@@H](Cc1ccc(O)cc1)C(=O)N[C@@H](CCC(N)=O)C(=O)N[C@@H](CCCCN)C(=O)N[C@@H](CCCCN)C(=O)N[C@@H](CC(C)C)C(=O)N[C@@H](CCCNC(=N)N)C(=O)N[C@@H](CO)C(=O)N[C@@H](C)C(=O)N[C@H](C(=O)N[C@@H](CC(=O)O)C(=O)N[C@@H](CCCCN)C(=O)N[C@@H](Cc1ccc(O)cc1)C(=O)N[C@@H](CCCNC(=N)N)C(=O)N[C@@H](CC(C)C)C(N)=O)[C@@H](C)O
B3: CXCR4 i1 loop compound 148 (peptide)
peptide: Palmitoyl-MGYQKKLRSMADKYRL-NH2
SMILES: CCCCCCCCCCCCCCCC(=O)N[C@@H](CCSC)C(=O)NCC(=O)N[C@@H](Cc1ccc(O)cc1)C(=O)N[C@@H](CCC(N)=O)C(=O)N[C@@H](CCCCN)C(=O)N[C@@H](CCCCN)C(=O)N[C@@H](CC(C)C)C(=O)N[C@@H](CCCNC(=N)N)C(=O)N[C@@H](CO)C(=O)N[C@@H](CCSC)C(=O)N[C@@H](C)C(=O)N[C@@H](CC(=O)O)C(=O)N[C@@H](CCCCN)C(=O)N[C@@H](Cc1ccc(O)cc1)C(=O)N[C@@H](CCCNC(=N)N)C(=O)N[C@@H](CC(C)C)C(N)=O
B4: CXCR4 i1 loop compound 149 (peptide)
peptide: Palmitoyl-MGYQKKLRSMTAKYRL-NH2
SMILES: CCCCCCCCCCCCCCCC(=O)N[C@@H](CCSC)C(=O)NCC(=O)N[C@@H](Cc1ccc(O)cc1)C(=O)N[C@@H](CCC(N)=O)C(=O)N[C@@H](CCCCN)C(=O)N[C@@H](CCCCN)C(=O)N[C@@H](CC(C)C)C(=O)N[C@@H](CCCNC(=N)N)C(=O)N[C@@H](CO)C(=O)N[C@@H](CCSC)C(=O)N[C@H](C(=O)N[C@@H](C)C(=O)N[C@@H](CCCCN)C(=O)N[C@@H](Cc1ccc(O)cc1)C(=O)N[C@@H](CCCNC(=N)N)C(=O)N[C@@H](CC(C)C)C(N)=O)[C@@H](C)O
B5: CXCR4 i1 loop compound 150 (peptide)
peptide: Palmitoyl-MGYQKKLRSMTDAYRL-NH2
SMILES: CCCCCCCCCCCCCCCC(=O)N[C@@H](CCSC)C(=O)NCC(=O)N[C@@H](Cc1ccc(O)cc1)C(=O)N[C@@H](CCC(N)=O)C(=O)N[C@@H](CCCCN)C(=O)N[C@@H](CCCCN)C(=O)N[C@@H](CC(C)C)C(=O)N[C@@H](CCCNC(=N)N)C(=O)N[C@@H](CO)C(=O)N[C@@H](CCSC)C(=O)N[C@H](C(=O)N[C@@H](CC(=O)O)C(=O)N[C@@H](C)C(=O)N[C@@H](Cc1ccc(O)cc1)C(=O)N[C@@H](CCCNC(=N)N)C(=O)N[C@@H](CC(C)C)C(N)=O)[C@@H](C)O
B6: CXCR4 i1 loop compound 151 (peptide)
peptide: Palmitoyl-MGYQKKLRSMTDKARL-NH2
SMILES: CCCCCCCCCCCCCCCC(=O)N[C@@H](CCSC)C(=O)NCC(=O)N[C@@H](Cc1ccc(O)cc1)C(=O)N[C@@H](CCC(N)=O)C(=O)N[C@@H](CCCCN)C(=O)N[C@@H](CCCCN)C(=O)N[C@@H](CC(C)C)C(=O)N[C@@H](CCCNC(=N)N)C(=O)N[C@@H](CO)C(=O)N[C@@H](CCSC)C(=O)N[C@H](C(=O)N[C@@H](CC(=O)O)C(=O)N[C@@H](CCCCN)C(=O)N[C@@H](C)C(=O)N[C@@H](CCCNC(=N)N)C(=O)N[C@@H](CC(C)C)C(N)=O)[C@@H](C)O
B7: CXCR4 i1 loop compound 152 (peptide)
peptide: Palmitoyl-MGYQKKLRSMTDKYAL-NH2
SMILES: CCCCCCCCCCCCCCCC(=O)N[C@@H](CCSC)C(=O)NCC(=O)N[C@@H](Cc1ccc(O)cc1)C(=O)N[C@@H](CCC(N)=O)C(=O)N[C@@H](CCCCN)C(=O)N[C@@H](CCCCN)C(=O)N[C@@H](CC(C)C)C(=O)N[C@@H](CCCNC(=N)N)C(=O)N[C@@H](CO)C(=O)N[C@@H](CCSC)C(=O)N[C@H](C(=O)N[C@@H](CC(=O)O)C(=O)N[C@@H](CCCCN)C(=O)N[C@@H](Cc1ccc(O)cc1)C(=O)N[C@@H](C)C(=O)N[C@@H](CC(C)C)C(N)=O)[C@@H](C)O
B8: CXCR4 i1 loop compound 153 (peptide)
peptide: Palmitoyl-MGYQKKLRSMTDKYRA-NH2
SMILES: CCCCCCCCCCCCCCCC(=O)N[C@@H](CCSC)C(=O)NCC(=O)N[C@@H](Cc1ccc(O)cc1)C(=O)N[C@@H](CCC(N)=O)C(=O)N[C@@H](CCCCN)C(=O)N[C@@H](CCCCN)C(=O)N[C@@H](CC(C)C)C(=O)N[C@@H](CCCNC(=N)N)C(=O)N[C@@H](CO)C(=O)N[C@@H](CCSC)C(=O)N[C@H](C(=O)N[C@@H](CC(=O)O)C(=O)N[C@@H](CCCCN)C(=O)N[C@@H](Cc1ccc(O)cc1)C(=O)N[C@@H](CCCNC(=N)N)C(=O)N[C@@H](C)C(N)=O)[C@@H](C)O
B9: CXCR4 i1 loop compound 129 (peptide)
peptide: Palmitoyl-AGYQKKLRSMTDKYRL-NH2
SMILES: CCCCCCCCCCCCCCCC(=O)N[C@@H](C)C(=O)NCC(=O)N[C@@H](Cc1ccc(O)cc1)C(=O)N[C@@H](CCC(N)=O)C(=O)N[C@@H](CCCCN)C(=O)N[C@@H](CCCCN)C(=O)N[C@@H](CC(C)C)C(=O)N[C@@H](CCCNC(=N)N)C(=O)N[C@@H](CO)C(=O)N[C@@H](CCSC)C(=O)N[C@H](C(=O)N[C@@H](CC(=O)O)C(=O)N[C@@H](CCCCN)C(=O)N[C@@H](Cc1ccc(O)cc1)C(=O)N[C@@H](CCCNC(=N)N)C(=O)N[C@@H](CC(C)C)C(N)=O)[C@@H](C)O
B10: CXCR4 i3 loop compound 99 (peptide)
peptide: Palmitoyl-HSKGHQKRKALKTTV-NH2
SMILES: CCCCCCCCCCCCCCCC(=O)N[C@@H](Cc1c[nH]cn1)C(=O)N[C@@H](CO)C(=O)N[C@@H](CCCCN)C(=O)NCC(=O)N[C@@H](Cc1c[nH]cn1)C(=O)N[C@@H](CCC(N)=O)C(=O)N[C@@H](CCCCN)C(=O)N[C@@H](CCCNC(=N)N)C(=O)N[C@@H](CCCCN)C(=O)N[C@@H](C)C(=O)N[C@@H](CC(C)C)C(=O)N[C@@H](CCCCN)C(=O)N[C@H](C(=O)N[C@H](C(=O)N[C@H](C(N)=O)C(C)C)[C@@H](C)O)[C@@H](C)O
B11: CXCR4 i3 loop compound 100 (peptide)
peptide: Palmitoyl-HSKGHQKRKALKTTVI-NH2
SMILES: CCCCCCCCCCCCCCCC(=O)N[C@@H](Cc1c[nH]cn1)C(=O)N[C@@H](CO)C(=O)N[C@@H](CCCCN)C(=O)NCC(=O)N[C@@H](Cc1c[nH]cn1)C(=O)N[C@@H](CCC(N)=O)C(=O)N[C@@H](CCCCN)C(=O)N[C@@H](CCCNC(=N)N)C(=O)N[C@@H](CCCCN)C(=O)N[C@@H](C)C(=O)N[C@@H](CC(C)C)C(=O)N[C@@H](CCCCN)C(=O)N[C@H](C(=O)N[C@H](C(=O)N[C@H](C(=O)N[C@H](C(N)=O)[C@@H](C)CC)C(C)C)[C@@H](C)O)[C@@H](C)O
B12: CXCR4 i3 loop compound 101 (peptide)
peptide: Palmitoyl-SKLSHSKGHQKRKALK-NH2
SMILES: CCCCCCCCCCCCCCCC(=O)N[C@@H](CO)C(=O)N[C@@H](CCCCN)C(=O)N[C@@H](CC(C)C)C(=O)N[C@@H](CO)C(=O)N[C@@H](Cc1c[nH]cn1)C(=O)N[C@@H](CO)C(=O)N[C@@H](CCCCN)C(=O)NCC(=O)N[C@@H](Cc1c[nH]cn1)C(=O)N[C@@H](CCC(N)=O)C(=O)N[C@@H](CCCCN)C(=O)N[C@@H](CCCNC(=N)N)C(=O)N[C@@H](CCCCN)C(=O)N[C@@H](C)C(=O)N[C@@H](CC(C)C)C(=O)N[C@@H](CCCCN)C(N)=O
B13: CXCR4 i3 loop compound 103 (peptide)
peptide: IIISKLSHSKGHQKRKALKT-NH2
modifications: not fully specified (N-terminus); also: dual lipid, backbone lipid not given here
B14: CXCR4 i3 loop compound 104 (peptide)
peptide: Palmitoyl-IIISKLSHSKGHQKRKALKT
modifications: not fully specified (C-terminus); also: dual lipid, second lipid position not given here
B15: CXCR4 i3 loop compound 105 (peptide)
peptide: KLSHSKGHQKRKALKTTVIL-NH2
modifications: not fully specified (N-terminus); also: dual lipid, backbone lipid not given here

biological target: T1, CXCR4 receptor (human, UniProt P61073 1-352); assay: cell-based or functional assay
T1 sequence (P61073 whole entry): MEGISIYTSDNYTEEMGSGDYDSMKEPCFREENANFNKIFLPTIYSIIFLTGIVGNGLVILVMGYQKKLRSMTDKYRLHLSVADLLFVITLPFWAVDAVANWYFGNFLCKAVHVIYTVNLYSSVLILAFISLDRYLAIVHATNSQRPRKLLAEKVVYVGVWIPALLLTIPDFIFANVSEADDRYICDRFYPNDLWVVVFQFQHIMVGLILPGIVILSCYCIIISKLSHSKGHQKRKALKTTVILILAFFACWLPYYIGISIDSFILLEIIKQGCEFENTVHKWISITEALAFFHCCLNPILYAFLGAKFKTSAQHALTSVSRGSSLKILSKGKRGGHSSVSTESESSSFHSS

Binder	IC50 (nM), calcium flux, CCRF-CEM [nM]
B1	170
B2	54
B3	298
B4	126
B5	313
B6	> 10000
B7	> 10000
B8	> 10000
Palmitoyl-MGYQKKLRSMTDKYR[dL]-NH2 [CXCR4 i1 loop compound 159]	> 10000
Palmitoyl-MGYQKKLRSMTDKY[dR]L-NH2 [CXCR4 i1 loop compound 160]	5730
B9	197
Palmitoyl-MGYQKKLRSMTDK[dY]RL-NH2 [CXCR4 i1 loop compound 161]	> 10000

biological target: T1, CXCR4 receptor; assay: cell-based or functional assay; remark: another data set of the same source

Binder	AUC (% of vehicle), chemotaxis, CEM, 1.0 uM	Max (% of vehicle), chemotaxis, CEM, 1.0 uM	Peak Ratio, chemotaxis, CEM, 1.0 uM
B10	45 % of vehicle	64.5 % of vehicle	0.2
B11	49.3 % of vehicle	49.8 % of vehicle	0.04
B12	75.5 % of vehicle	74.9 % of vehicle	1
B13	26.3 % of vehicle	24.4 % of vehicle	1
B14	36.4 % of vehicle	56.4 % of vehicle	0.2
B15	23.8 % of vehicle	42.9 % of vehicle	0.2
